Nine proteins from publication PMC3695523, “Reconstitution and characterization of eukaryotic N6-threonylcarbamoylation of tRNA using a minimal enzyme system” (Nucleic Acids Research, 2013) can be followed below.

Where a chain is given by its changes, count along the chain named. In names and notes the source's numbering stands.

Data set [1] deals with the molecule itself. In words: crystal structure; Qri7 30-407 at 10 mg/ml, 0.1 M Tris-HCl pH 7.5, 8% PEG8000, 0.2 M MgCl2, 4°C; homodimer by crystallographic symmetry.
Data set [2] deals with the molecule itself. In words: AUC; sedimentation velocity, 20°C, 42 000 rpm, 0.3125, 0.0625, 0.125, 0.250, 0.5 or 1 mg/ml protein.
Data set [3] deals with the molecule itself. The data set can be described thus: AUC; dimerization dissociation constants of the interface mutants (Supplementary Figure S5B); whether from equilibrium or velocity runs is not stated; 20°C; dimer to monomers.
Data set [4] concerns the molecule itself. In words: AUC; sedimentation equilibrium, 20°C, 0.25, 0.5 and 1 mg/ml, 10 000, 12 000, 15 000 rpm; fitted to a monomer-dimer model; dimer to monomers.

B1: Saccharomyces cerevisiae Qri7 (amino acids 30-407), crystallised form (enzyme, UniProt P43122 30-407, looked up)
chain: RKGYKVLAIETSCDDTCVSVLDRFSKSAAPNVLANLKDTLDSIDEGGIIPTKAHIHHQARIGPLTERALIESNAREGIDLICVTRGPGMPGSLSGGLDFAKGLAVAWNKPLIGVHHMLGHLLIPRMGTNGKVPQFPFVSLLVSGGHTTFVLSRAIDDHEILCDTIDIAVGDSLDKCGRELGFKGTMIAREMEKFINQDINDQDFALKLEMPSPLKNSASKRNMLSFSFSAFITALRTNLTKLGKTEIQELPEREIRSIAYQVQESVFDHIINKLKHVLKSQPEKFKNVREFVCSGGVSSNQRLRTKLETELGTLNSTSFFNFYYPPMDLCSDNSIMIGWAGIEIWESLRLVSDLDICPIRQWPLNDLLSVDGWRTDQL
modifications: seleno-methionine (a seleno-methionine crystal data set was collected)
notes: One protomer in the asymmetric unit; the homodimer is made by crystallographic symmetry; also called scQri7; not shown: His6, N-terminal, cleaved
Take B1: the binding result in data set [1] is given as “binds”.

B2: Qri7 (30-407) I77E (enzyme, yeast (Saccharomyces cerevisiae), UniProt P43122 30-407, looked up)
chain: B1 chain with I48E
notes: Qri7, S. cerevisiae, amino acids 30-407, catalytic cleft mutant; source: E. coli BL21 (DE3) CodonPlus, purified (Ni-NTA or glutathione sepharose, SEC)
For the protein B2, the “stoichiometry N” value in data set [2] was 2.

B3: Qri7 (30-407) S258A (enzyme, yeast (Saccharomyces cerevisiae), UniProt P43122 30-407, looked up)
chain: B1 chain with S229A
notes: as for B2
In the case of B3, in data set [2], the “stoichiometry N” value was determined as 2.

B4: Qri7 (30-407) R104A (enzyme, yeast (Saccharomyces cerevisiae), UniProt P43122 30-407, looked up)
chain: B1 chain with R75A
notes: Qri7, S. cerevisiae, amino acids 30-407, dimer interface mutant; also called R104A mutant; source: E. coli BL21 (DE3) CodonPlus, purified (Ni-NTA or glutathione sepharose, SEC)
Protein B4 came in with a dissociation constant Kd in data set [3] of 3000 ± 300 nM.

B5: Qri7 (residues 30-407), wild type, as used for analytical ultracentrifugation (enzyme, yeast (Saccharomyces cerevisiae), UniProt P43122 30-407, looked up)
chain: B1 chain
notes: Qri7, S. cerevisiae, amino acids 30-407; also called wild-type Qri7; source: E. coli BL21 (DE3) CodonPlus, purified (Ni-NTA or glutathione sepharose, SEC)
B5: the “stoichiometry N” value in data set [2] came to 2. Further, the Kd in data set [4] is 60 nM.

B6: Qri7 (30-407) D44A (enzyme, yeast (Saccharomyces cerevisiae), UniProt P43122 30-407, looked up)
chain: B1 chain with D15A
notes: as for B2
Regarding B6, the “stoichiometry N” value in data set [2] worked out at 2.

B7: Qri7 (30-407) K130A (enzyme, yeast (Saccharomyces cerevisiae), UniProt P43122 30-407, looked up)
chain: B1 chain with K101A
notes: Qri7, S. cerevisiae, amino acids 30-407, dimer interface mutant; also called K130A mutant; source: E. coli BL21 (DE3) CodonPlus, purified (Ni-NTA or glutathione sepharose, SEC)
On to B7, for which the Kd in data set [3] stood at 2500 ± 200 nM.

B8: Qri7 (30-407) R207A (enzyme, yeast (Saccharomyces cerevisiae), UniProt P43122 30-407, looked up)
chain: B1 chain with R178A
notes: as for B2
Regarding B8, the “stoichiometry N” value in data set [2] is 2.

B9: Qri7 (30-407) D43A (enzyme, yeast (Saccharomyces cerevisiae), UniProt P43122 30-407, looked up)
chain: B1 chain with D14A
notes: as for B2
B9: the “stoichiometry N” value in data set [2] is 2.
